Laboratory results from the supplement of paper PMC10567573.

B1: TFE3 (parent)
chain: ELPNIKREISETEAKALLKERQKK

Variants of: B1
Assay: protein stability index of a GFP-peptide fusion (GPS, HEK-293T) (PSI 1-6); higher = more stable
Details: c terminus: a fixed tail appended
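Also: lentivirally expressed fusions sorted by FACS into six bins by GFP to DsRed ratio, PSI derived from sequencing read proportions per bin multiplied by bin number.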

Going from ELPNIKREISEREAKALLKERQKK [T12R] to ELPNIKREISEDEAKALLKERQKK [T12D], the protein stability index rises from 4.08 to 4.56.

Compared with ELPNIKREISEWEAKALLKERQKK [T12W], ELPNIKREISEFEAKALLKERQKK [T12F] is higher in protein stability index: 3.31 for the first, 3.78 for the second.

First: ELPNIKREISATEAKALLKERQKK [E11A]
Second: ELPNIKREISDTEAKALLKERQKK [E11D]
The protein stability index of the first is higher: 2.89 for the first, 2.45 for the second.

Going from ELPNIKREISYTEAKALLKERQKK [E11Y] to ELPNIKREISNTEAKALLKERQKK [E11N], the protein stability index falls from 3.16 to 2.99.

Compared with ELPNIKREISITEAKALLKERQKK [E11I], ELPNIKREISSTEAKALLKERQKK [E11S] is higher in protein stability index: 3.05 for the first, 3.61 for the second.

First: ELPNIKREISRTEAKALLKERQKK [E11R]
Second: ELPNIKREISCTEAKALLKERQKK [E11C]
The protein stability index of the first is lower: 2.5 for the first, 2.87 for the second.

First: ELPNIKREISLTEAKALLKERQKK [E11L]
Second: ELPNIKREISFTEAKALLKERQKK [E11F]
The protein stability index of the first is lower: 2.79 for the first, 3.43 for the second.

Compared with ELPNIKREISMTEAKALLKERQKK [E11M], ELPNIKREISGTEAKALLKERQKK [E11G] is higher in protein stability index: 2.78 for the first, 3.45 for the second.

Compared with ELPNIKREISVTEAKALLKERQKK [E11V], ELPNIKREISQTEAKALLKERQKK [E11Q] is higher in protein stability index: 2.43 for the first, 3.29 for the second.

Going from ELPNIKREISPTEAKALLKERQKK [E11P] to ELPNIKREISKTEAKALLKERQKK [E11K], the protein stability index falls from 4.21 to 3.48.

Compared with ELPNIKREISTTEAKALLKERQKK [E11T], ELPNIKREISHTEAKALLKERQKK [E11H] is lower in protein stability index: 3.25 for the first, 3.1 for the second.

Compared with ELPNIKREISWTEAKALLKERQKK [E11W], ELPNIKREFSETEAKALLKERQKK [I9F] is higher in protein stability index: 2.91 for the first, 4.51 for the second.

Compared with ELPNIKRETSETEAKALLKERQKK [I9T], ELPNIKREQSETEAKALLKERQKK [I9Q] is higher in protein stability index: 4.49 for the first, 4.83 for the second.

First: ELPNIKREWSETEAKALLKERQKK [I9W]
Second: ELPNIKREHSETEAKALLKERQKK [I9H]
The protein stability index of the first is lower: 4.13 for the first, 5.21 for the second.

First: ELPNIKRENSETEAKALLKERQKK [I9N]
Second: ELPNIKRESSETEAKALLKERQKK [I9S]
The protein stability index of the first is lower: 3.19 for the first, 4.68 for the second.

First: ELPNIKRERSETEAKALLKERQKK [I9R]
Second: ELPNIKREESETEAKALLKERQKK [I9E]
The protein stability index of the first is lower: 3.88 for the first, 5.1 for the second.

Compared with ELPNIKRECSETEAKALLKERQKK [I9C], ELPNIKREASETEAKALLKERQKK [I9A] is higher in protein stability index: 3.74 for the first, 4.71 for the second.

Compared with ELPNIKRELSETEAKALLKERQKK [I9L], ELPNIKREVSETEAKALLKERQKK [I9V] is higher in protein stability index: 2.66 for the first, 3.64 for the second.

First: ELPNIKREDSETEAKALLKERQKK [I9D]
Second: ELPNIKREYSETEAKALLKERQKK [I9Y]
The protein stability index of the first is higher: 5.15 for the first, 4.34 for the second.

Going from ELPNIKREMSETEAKALLKERQKK [I9M] to ELPNIKREGSETEAKALLKERQKK [I9G], the protein stability index rises from 2.25 to 4.67.

Compared with ELPNIKREPSETEAKALLKERQKK [I9P], ELPNIKREKSETEAKALLKERQKK [I9K] is lower in protein stability index: 5.1 for the first, 4.95 for the second.

First: ELPNIYREISETEAKALLKERQKK [K6Y]
Second: ELPNILREISETEAKALLKERQKK [K6L]
The protein stability index of the first is lower: 2.65 for the first, 2.83 for the second.

First: ELPNINREISETEAKALLKERQKK [K6N]
Second: ELPNIIREISETEAKALLKERQKK [K6I]
The protein stability index of the first is higher: 2.81 for the first, 2.04 for the second.

Going from ELPNIMREISETEAKALLKERQKK [K6M] to ELPNIRREISETEAKALLKERQKK [K6R], the protein stability index falls from 2.75 to 2.02.

Compared with ELPNIWREISETEAKALLKERQKK [K6W], ELPNIQREISETEAKALLKERQKK [K6Q] is higher in protein stability index: 2.01 for the first, 2.45 for the second.

First: ELPNIPREISETEAKALLKERQKK [K6P]
Second: ELPNITREISETEAKALLKERQKK [K6T]
The protein stability index of the first is higher: 3.89 for the first, 3.05 for the second.

First: ELPNIVREISETEAKALLKERQKK [K6V]
Second: ELPNIGREISETEAKALLKERQKK [K6G]
The protein stability index of the first is lower: 2.24 for the first, 2.81 for the second.

First: ELPNIHREISETEAKALLKERQKK [K6H]
Second: ELPNISREISETEAKALLKERQKK [K6S]
The protein stability index of the first is lower: 2.49 for the first, 2.5 for the second.

Going from ELPNIKREISETGAKALLKERQKK [E13G] to ELPNIKREISETTAKALLKERQKK [E13T], the protein stability index falls from 4.58 to 4.34.

Compared with ELPNIKREISETDAKALLKERQKK [E13D], ELPNIKREISETVAKALLKERQKK [E13V] is lower in protein stability index: 4.12 for the first, 3.45 for the second.

First: ELPNIKREISETYAKALLKERQKK [E13Y]
Second: ELPNIKREISETSAKALLKERQKK [E13S]
The protein stability index of the first is lower: 3.32 for the first, 4.13 for the second.

Compared with ELPNIKREISETWAKALLKERQKK [E13W], ELPNIKREISETHAKALLKERQKK [E13H] is higher in protein stability index: 2.56 for the first, 4.65 for the second.

First: ELPNIKREISETLAKALLKERQKK [E13L]
Second: ELPNIKREISETNAKALLKERQKK [E13N]
The protein stability index of the first is lower: 3.06 for the first, 3.83 for the second.

Going from ELPNIKREISETKAKALLKERQKK [E13K] to ELPNIKREISETCAKALLKERQKK [E13C], the protein stability index falls from 3.83 to 2.74.

First: ELPNIKREISETFAKALLKERQKK [E13F]
Second: ELPNIKREISETPAKALLKERQKK [E13P]
The protein stability index of the first is lower: 3.26 for the first, 3.92 for the second.

First: ELPNIKREISETIAKALLKERQKK [E13I]
Second: ELPNIKREISETMAKALLKERQKK [E13M]
The protein stability index of the first is lower: 3.33 for the first, 3.71 for the second.

Going from ELPNIKREISETAAKALLKERQKK [E13A] to ELPNIKREISETQAKALLKERQKK [E13Q], the protein stability index falls from 4.83 to 4.34.

Going from ELPNIKREISETRAKALLKERQKK [E13R] to ELPNIKREISETEAMALLKERQKK [K15M], the protein stability index falls from 3.43 to 2.41.

First: ELPNIKREISETEAYALLKERQKK [K15Y]
Second: ELPNIKREISETEADALLKERQKK [K15D]
The protein stability index of the first is higher: 2.31 for the first, 1.98 for the second.

Going from ELPNIKREISETEALALLKERQKK [K15L] to ELPNIKREISETEAWALLKERQKK [K15W], the protein stability index rises from 2.08 to 2.42.

Going from ELPNIKREISETEAVALLKERQKK [K15V] to ELPNIKREISETEAEALLKERQKK [K15E], the protein stability index falls from 2.02 to 1.86.

Going from ELPNIKREISETEAFALLKERQKK [K15F] to ELPNIKREISETEATALLKERQKK [K15T], the protein stability index falls from 2.54 to 2.3.

Going from ELPNIKREISETEACALLKERQKK [K15C] to ELPNIKREISETEARALLKERQKK [K15R], the protein stability index falls from 3.29 to 3.15.

First: ELPNIKREISETEAQALLKERQKK [K15Q]
Second: ELPNIKREISETEAAALLKERQKK [K15A]
The protein stability index of the first is lower: 2.46 for the first, 2.5 for the second.

Compared with ELPNIKREISETEAIALLKERQKK [K15I], ELPNIKREISETEAGALLKERQKK [K15G] is higher in protein stability index: 2.21 for the first, 2.34 for the second.

Going from ELPNIKREISETEANALLKERQKK [K15N] to ELPNIKREISETEAHALLKERQKK [K15H], the protein stability index rises from 2.22 to 2.94.

First: ELPNIKREISETEAPALLKERQKK [K15P]
Second: ELPNIKREISETEASALLKERQKK [K15S]
The protein stability index of the first is higher: 4.59 for the first, 2.75 for the second.
